According to PMC11215725, “A Potent Sybody Selectively Inhibits α-Synuclein Amyloid Formation by Binding to the P1 Region” (Journal of Medicinal Chemistry, 2024):
* marks the point of attachment. Biotin = O=C1N[C@H]2[C@H](CS[C@H]2CCCCC(=O)*)N1

What was measured:
[1] = target: WT α-syn stabilized oligomers (Homo sapiens (Human)., UniProt P37840); assay: ELISA; 80 pmol αSP1 immobilised on the plate, 160 pmol of each α-syn species added, detection by anti-α-syn-HRP; blocking with 5% goat serum in TBS; settings: both partners purified
[2] = target: wild-type α-synuclein, monomeric (UniProt P37840); assay: ELISA; indirect ELISA: 30 μM WT or ΔP1 α-syn monomers coated on MaxiSorp plate, 1-10 μM αSP1 for 1 h at room temperature, detection by anti-six-His HRP; TBS; settings: both partners purified
[3] = target: WT α-syn samples collected after aggregation for 48 h (Homo sapiens (Human)., UniProt P37840); assay: ELISA; indirect ELISA: aliquots of a 20 μM WT α-syn aggregation taken at 0, 5, 10, 24 and 48 h coated on the plate, 2 μM αSP1, detection by anti-six-His HRP; settings: both partners purified
[4] = target: T1, synthetic peptide with the sequence of P1 from α-syn (Homo sapiens (Human)., SMILES CC(C)C[C@H](NC(=O)[C@@H](NC(=O)CNC(=O)CCCC[C@@H]1SC[C@@H]2NC(=O)N[C@@H]21)C(C)C)C(=O)N[C@@H](Cc1ccc(O)cc1)C(=O)N[C@H](C(=O)NCC(=O)N[C@@H](CO)C(N)=O)C(C)C); assay: ELISA; screen in 96 wells: protein A coated, anti-c-Myc antibody, sybody from diluted periplasmic extract captured, then 500 nM biotinylated peptide, streptavidin-HRP; TBS with 0.5% BSA; OD 650 nm; settings: one partner purified
T1 construct: P1 region of α-synuclein, residues 36-42; also called P1 peptide; peptide P1; source: synthetic peptide, bought: GenScript
T1 chain: Biotin-GVLYVGS-NH2

Measured: binding result

B1: sybody αSP1 (VHH)
VHH: QVQLVESGGGLVQAGGSLRLSCAASGFPVRHQWMEWYRQAPGKEREWVAAISSFGQWTKYADSVKGRFTISRDNAKNTVYLQMNSLKPEDTAVYYCVVEVGYEYYGQGTQVTVSA
notes: His35 stands in CDR1; Synthetic single-domain antibody; results: NTA-Alexa Fluor 647; this is not a covalent change of a residue; also called aSP1; source: in periplasmic extract for the screen; purified (Ni-NTA, SEC) for all other experiments; not shown: Myc, C-terminal, kept; His tag, C-terminal, kept
binds: all assays above
